T1: PUF4 RNA-binding domain (Saccharomyces cerevisiae, UniProt P25339 537-888)
T1 sequence: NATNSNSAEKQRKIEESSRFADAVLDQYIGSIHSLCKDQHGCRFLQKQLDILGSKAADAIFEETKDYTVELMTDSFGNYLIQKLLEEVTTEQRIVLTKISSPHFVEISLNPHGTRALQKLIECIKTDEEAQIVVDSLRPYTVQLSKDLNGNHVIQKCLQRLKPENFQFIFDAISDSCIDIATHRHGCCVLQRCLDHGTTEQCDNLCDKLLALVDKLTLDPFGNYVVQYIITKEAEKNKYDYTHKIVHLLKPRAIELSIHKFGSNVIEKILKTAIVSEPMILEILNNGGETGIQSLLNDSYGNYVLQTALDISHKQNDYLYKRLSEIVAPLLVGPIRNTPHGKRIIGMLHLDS


biological target: T1, PUF4 RNA-binding domain; assay: Mg; RNA-MaP; 20 mM Na-HEPES pH 7.4, 30 mM KOAc, 0.75 mM MgCl2, 0.1% Tween-20, 5% glycerol, 0.1 mg/mL BSA, 2 mM DTT; 25 C; 0.0125-409.6 nM protein; conditions: tags: N-His6-TEV cleaved; C-SNAP kept, Cy3B-labelled; label: tethered on chip by stalled RNA polymerase

Binder | Kd [nM]
UCUCUUUGUAUAUUACCUCUCUCUU (ssRNA) [Ie_S1_P4E.1_K4.1_C4.1_H4.1_A4.1_F4.1_[+9CCTC]_T4.1] | 0.706
UCUCUUUUCGUAUUAUUAUCUCUU (ssRNA) [Ie_S1_P5E.1_K5.1_C5.1_H5.1_[+1TC]_A5.1_F5.1_T5.1] | 1240
UCUCUUUGUAUAUCCCUUAUCUCUU (ssRNA) [Ie_S1_P4E.1_K4.1_C4.1_H4.1_A4.1_[+7CCCT]_F4.1_T4.1] | 23.4
UCUCUUUGUAUAUUUUCAUCUCUU (ssRNA) [Ie_S1_P4E.1_K4.1_C4.1_H4.1_A4.1_F4.1_[+8TTC]_T4.1] | 6.76
UCUCUUUGUAUAUUCUCAUCUCUU (ssRNA) [Ie_S1_P4E.1_K4.1_C4.1_H4.1_A4.1_F4.1_[+8CTC]_T4.1] | 10.8
UCUCUUUGUAUAUUCCCUAUCUCUU (ssRNA) [Ie_S1_P4E.1_K4.1_C4.1_H4.1_A4.1_F4.1_[+8CCCT]_T4.1] | 6.32
UCUCUUUUUGUAUUAUUAUCUCUU (ssRNA) [Ie_S1_P5E.1_K5.1_C5.1_H5.1_[+1TT]_A5.1_F5.1_T5.1] | 7.17
UCUCUUUGUAUAUUUCCUUAUCUCUU (ssRNA) [Ie_S1_P4E.1_K4.1_C4.1_H4.1_A4.1_[+7TTCCT]_F4.1_T4.1] | 3.91
UCUCUUUGUAUAUUUUCCUAUCUCUU (ssRNA) [Ie_S1_P4E.1_K4.1_C4.1_H4.1_A4.1_F4.1_[+8TTCCT]_T4.1] | 5.96
UCUCUUUGUAUAUUACUCUUCUCUU (ssRNA) [Ie_S1_P4E.1_K4.1_C4.1_H4.1_A4.1_F4.1_[+9CTCT]_T4.1] | 0.906
Ib_S2_P3E.1_K3.1_C3.1_H3.1_[T1C]_A3.1_F3.1_[T7A]_T3.1 (ssRNA) RNA: UUUGAUUAAUAUGAUAUCGUUCUUUCUCGUAUAAAUUCUUUCUCGAUAUCAUAUUAAUCUUU | > 2300
Ib_S2_P3E.1_K3.1_C3.1_H3.1_[A4G]_A3.1_F3.1_[T7A]_T3.1 (ssRNA) RNA: UUUGAUUAAUAUGAUAUCGUUCUUUCUUGUGUAAAUUCUUUCUCGAUAUCAUAUUAAUCUUU | 35.3
Ib_S2_P3E.1_K3.1_C3.1_H3.1_[A4T]_A3.1_F3.1_[T7A]_T3.1 (ssRNA) RNA: UUUGAUUAAUAUGAUAUCGUUCUUUCUUGUUUAAAUUCUUUCUCGAUAUCAUAUUAAUCUUU | 1590
Ib_S2_P3E.1_K3.1_C3.1_H3.1_[G2C]_A3.1_F3.1_[T7A]_T3.1 (ssRNA) RNA: UUUGAUUAAUAUGAUAUCGUUCUUUCUUCUAUAAAUUCUUUCUCGAUAUCAUAUUAAUCUUU | > 2300
UCUCUUUGUAUAUUACCCUUUCUCUU (ssRNA) [Ie_S1_P4E.1_K4.1_C4.1_H4.1_A4.1_F4.1_[+9CCCTT]_T4.1] | 0.925
UCUCUUUGUAUAUUCCUCUAUCUCUU (ssRNA) [Ie_S1_P4E.1_K4.1_C4.1_H4.1_A4.1_F4.1_[+8CCTCT]_T4.1] | 6.71
UCUCUUUCGUAUUAUUAUCUCUU (ssRNA) [Ie_S1_P5E.1_K5.1_C5.1_H5.1_[+1C]_A5.1_F5.1_T5.1] | 1320
UCUCUUUGUAUAUCCUCUUAUCUCUU (ssRNA) [Ie_S1_P4E.1_K4.1_C4.1_H4.1_A4.1_[+7CCTCT]_F4.1_T4.1] | 31.7
UCUCUUUGUAUAUUACCCUCUCUU (ssRNA) [Ie_S1_P4E.1_K4.1_C4.1_H4.1_A4.1_F4.1_[+9CCC]_T4.1] | 1.11
UCUCUUUGUAUAUCCUCUAUCUCUU (ssRNA) [Ie_S1_P4E.1_K4.1_C4.1_H4.1_A4.1_[+7CCTC]_F4.1_T4.1] | 25.3
UCUCUUUGUAUAUUAUUCUCUCUU (ssRNA) [Ie_S1_P4E.1_K4.1_C4.1_H4.1_A4.1_F4.1_[+9TTC]_T4.1] | 0.488
UCUCUUUGUAUAUUAUUCUCUU (ssRNA) [Ie_S1_P4E.1_K4.1_C4.1_H4.1_A4.1_F4.1_[+9T]_T4.1] | 0.531
UCUCUUUGUAUAUUACUCUCUCUCUU (ssRNA) [Ie_S1_P4E.1_K4.1_C4.1_H4.1_A4.1_F4.1_[+9CTCTC]_T4.1] | 0.699
UCUCUUUGUAUAUUAUCUCUUCUCUU (ssRNA) [Ie_S1_P4E.1_K4.1_C4.1_H4.1_A4.1_F4.1_[+9TCTCT]_T4.1] | 0.824

Binder | Kd [nM]
UCUCUUUGUAUAUUAUCCUCUCUU (ssRNA) [Ie_S1_P4E.1_K4.1_C4.1_H4.1_A4.1_F4.1_[+9TCC]_T4.1] | 0.48
UCUCUUUGUAUAUUAUCUUCUCUU (ssRNA) [Ie_S1_P4E.1_K4.1_C4.1_H4.1_A4.1_F4.1_[+9TCT]_T4.1] | 0.632
UCUCUUUGUAUAUUACUCUCUCUU (ssRNA) [Ie_S1_P4E.1_K4.1_C4.1_H4.1_A4.1_F4.1_[+9CTC]_T4.1] | 1.09
UCUCUUUGUAUAUUUUCCAUCUCUU (ssRNA) [Ie_S1_P4E.1_K4.1_C4.1_H4.1_A4.1_F4.1_[+8TTCC]_T4.1] | 5.8
UCUCUUUGUAUAUUAUCUCUCUCUU (ssRNA) [Ie_S1_P4E.1_K4.1_C4.1_H4.1_A4.1_F4.1_[+9TCTC]_T4.1] | 0.601
UCUCUUUGUAUAUUUCUCUAUCUCUU (ssRNA) [Ie_S1_P4E.1_K4.1_C4.1_H4.1_A4.1_F4.1_[+8TCTCT]_T4.1] | 6.66
UCUCUUUGUAUAUUCCUCAUCUCUU (ssRNA) [Ie_S1_P4E.1_K4.1_C4.1_H4.1_A4.1_F4.1_[+8CCTC]_T4.1] | 6.83
UCUCUUUGUAUAUUACCUUCUCUU (ssRNA) [Ie_S1_P4E.1_K4.1_C4.1_H4.1_A4.1_F4.1_[+9CCT]_T4.1] | 0.795
UCUCUUUGUAUAUUAUUUUCUCUU (ssRNA) [Ie_S1_P4E.1_K4.1_C4.1_H4.1_A4.1_F4.1_[+9TTT]_T4.1] | 0.453
UCUCUUUGUAUAUUACCUCUCUU (ssRNA) [Ie_S1_P4E.1_K4.1_C4.1_H4.1_A4.1_F4.1_[+9CC]_T4.1] | 0.729
UCUCUUUGUAUAUUAUCUCUCUU (ssRNA) [Ie_S1_P4E.1_K4.1_C4.1_H4.1_A4.1_F4.1_[+9TC]_T4.1] | 0.435
UCUCUUUGUAUAUUACUUCUCUU (ssRNA) [Ie_S1_P4E.1_K4.1_C4.1_H4.1_A4.1_F4.1_[+9CT]_T4.1] | 0.578
UCUCUUUGUAUAUUAUUCCUCUCUU (ssRNA) [Ie_S1_P4E.1_K4.1_C4.1_H4.1_A4.1_F4.1_[+9TTCC]_T4.1] | 0.476
UCUCUUUGUAUAUUAUUUCUCUU (ssRNA) [Ie_S1_P4E.1_K4.1_C4.1_H4.1_A4.1_F4.1_[+9TT]_T4.1] | 0.545
UCUCUUUCUGUAUUAUUAUCUCUU (ssRNA) [Ie_S1_P5E.1_K5.1_C5.1_H5.1_[+1CT]_A5.1_F5.1_T5.1] | 3.96
UCUCUUUGUAUAUCUCUCUAUCUCUU (ssRNA) [Ie_S1_P4E.1_K4.1_C4.1_H4.1_A4.1_[+7CTCTC]_F4.1_T4.1] | 15.9
UCUCUUUGUAUAUUUCCUAUCUCUU (ssRNA) [Ie_S1_P4E.1_K4.1_C4.1_H4.1_A4.1_[+7TTCC]_F4.1_T4.1] | 6.97
UCUCUUUGUAUAUUACCUCUUCUCUU (ssRNA) [Ie_S1_P4E.1_K4.1_C4.1_H4.1_A4.1_F4.1_[+9CCTCT]_T4.1] | 1.58
UCUCUUUGUAUAUUUCAUCUCUU (ssRNA) [Ie_S1_P4E.1_K4.1_C4.1_H4.1_A4.1_F4.1_[+8TC]_T4.1] | 5.5
UCUCUUUGUAUAUUCUCUCAUCUCUU (ssRNA) [Ie_S1_P4E.1_K4.1_C4.1_H4.1_A4.1_F4.1_[+8CTCTC]_T4.1] | 5.64
UCUCUUUGUAUAUUAUUCCUUCUCUU (ssRNA) [Ie_S1_P4E.1_K4.1_C4.1_H4.1_A4.1_F4.1_[+9TTCCT]_T4.1] | 0.347
UCUCUUUUGUAUUAUUAUCUCUU (ssRNA) [Ie_S1_P5E.1_K5.1_C5.1_H5.1_[+1T]_A5.1_F5.1_T5.1] | 5.92
UCUCUUUCCCGUAUUAUUAUCUCUU (ssRNA) [Ie_S1_P5E.1_K5.1_C5.1_H5.1_[+1CCC]_A5.1_F5.1_T5.1] | 1340

— article PMC9352680, “A comprehensive thermodynamic model for RNA binding by the Saccharomyces cerevisiae Pumilio protein PUF4”
